B1: S1-R3-T1-H7 (Ab12) (scFv, V domains shown)
VH: EVQLVESGPGVVSPSATLFLTCSVSGGSIRTHSWNWIRQPPGKPLEWIGFIHHSGATNKNPSLKSRVTISSDTSKNEFSLTLTSVTAADTAVYYCARGPGILSYWSRGTLVTVSS
VL: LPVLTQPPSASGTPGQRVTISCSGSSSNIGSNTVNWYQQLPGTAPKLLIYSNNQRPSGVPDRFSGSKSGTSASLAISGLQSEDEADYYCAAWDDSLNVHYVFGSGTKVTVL
B2: S1-RBD-R3-T1-G1 Ab (Ab_35) (scFv, V domains shown)
VH: EVQLVQSGAEVKKPGESLRISCKASGYSFTSNWIGWVRQMPGKGLEWMGSIFPGDSDTKYSPSFQGQVTISADRSISTAYLQWSGLKASDTAMYYCARESYNAYGSWGQGTLVTVSS
VL: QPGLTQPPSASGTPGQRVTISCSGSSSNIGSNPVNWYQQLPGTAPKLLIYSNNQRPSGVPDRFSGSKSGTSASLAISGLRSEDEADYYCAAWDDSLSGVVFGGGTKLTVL
B3: Ab 38 (scFv, V domains shown)
VH: QVTLKESGPTLVKPTQTLTLTCTFSGFSLTTSGVSVGWIRQPPGKALEWLALIHWDDDKRYSPSLRSRLTITRDTSKNQVVLTVTDMDPADTGTYYCASFIMTVYAEYFEDWGQGTLVTVSS
VL: EIVLTQSPATLSVSPGERATLSCRASQSVSSNLAWYQQKPGQAPRLLMYDVSTRATGIPARFSGSGSGTEFSLTISSLQSEDFAVYYCQQRGAWPLTFGGGTKVEIK
B4: S1-RBD-R3-T1-F9 Ab (Ab_39) (scFv, V domains shown)
VH: QVTLKESGPTLVKPTQTLTLTCTLSGVSLDTIGMRVSWIRQPPGKALEWLARIDWDDDKFYSTALKTRLTISKDTSKNQVVFTMTSMDPVDTATYYCARSGLLYDLDVWGRGTLVTVSS
VL: QSVVTQPPSVSGAPGQRVTISCTGSDSDIGANFVQWYQQLPGTAPKLLIWRNTNRPSGVPDRFSASKSGTSASLAITGLQAEDEADYFCQSYDSSLSAYVFGGGTKVTVL
B5: RBD-R3-E1-F5 Ab (Ab_36) (scFv, V domains shown)
VH: QVQLQQSGPGLVKPSQTLSLTCAIFGDSVTSNSAAWNWIRQSPSRGLEWLGRTYYSSKWYNDYAVSVKSRVTINADTSKNQLSLQLNSVTPEDTAVYYCARGWLRLSFDPWGQGTLVTVSS
VL: NFMLTQPHSVSESPGKTVTISCTGSSGSIASNYVQWLQQRLGSAPTTVIYEDNQRPSGVPDRFSGSIDSSSNSASLTISGLKTEDEADYYCQSYDPNNHGVVFGGGTKLTVL
B6: S1-RBD-R3-E1-E8 Ab (Ab 37) (scFv, V domains shown)
VH: QVQLVQSGAEVKKPGASVKVSCKASGYTFTSYGISWVRQAPGQGLEWMGWISTYNGNTNYAQKLQGRVTMTTDTSTSTAYMEVRSLRSDDTAVYYCARDVFGHFDYWGQGTLVTVSS
VL: NFMLTQPHSVSESPGKTVLISCTRSSGNIATNYVQWYQQRPGSAPTTVIYEDNQRPSGVPDRFSGSIDSSSNSASLTISGLKTEDEADYYCKSYDDGNHVFGGGTKLTVL

The binders below were run against D614G Spike (SARS-CoV-2, UniProt P0DTC2 16-1213).

| Binder | Kd [pM] |
| --- | --- |
| B1 | 11.2 |

The binders below were run against D614G Spike (SARS-CoV2, UniProt P0DTC2 16-1213).

| Binder | Kd [pM] |
| --- | --- |
| B2 | 8.69 |
| B3 | 3.37 |
| B4 | < 1 |
| B5 | 7.42 |
| B6 | 8.54 |
